Consider 18 sequences from the DeepSol protein solubility set.

A short description of the data set: soluble on expression in E. coli; label from the status in PepcDB or PDB records.
For “MAHHHHHHMPPLLTEVKPAGYRPQLRVCYLCGQQFGSASIGIHVPQCYQKKLSQWEVTDPAVRGPKPKHPDMVKWKGGNGASVEAINREQYQEFNSQLVACPHCARTFLPDRLPVHLRGCRGDGKVGVPSSKAKADGGGGSTPGGGKHKSEPRRAAGCRSLSPGPPLLPTCYLCGQQFGTASIGIHVPQCYEKKLAQWQNADPHSRGHPPKHPDTVNWRGRPGASPREQAEEQFQEFMNNLEECPNCSRRFLPERLVVHLRSCRPDNPPKPTSPRKAKTGGGARCPTPTTATTPADTAATKASIGGQTPRSEKQQRKQEPPTSSAGEDWIHPKRNRLTRHSTLPTESRVCPQCDAVEYDADAKFCRDCGHNFVPKPLSNSCQHCGERIPHGSRFCGTCGQPVQGASAHELTPGGPNKHASTVRRVVCPACEAISDADGNFCDNCGAALGDADLTPAPAAAGAAATPPSTRAGGSTEHKAVLYCAKCKETVEDTTAVFCEDCGGRLEALKVLTTKDDGPPLRADGTLPPSDVARLKVARASTPQRPSASEPAKTVTTPVASSVAPARPQTRNACTPIEEHTDEFPAYAEDDLVRVPCSHCGRQFASESLAKHERICCSQKKRRVFNATKQRLPEGATAAAKPSAGSQPAAPKRDWKAESESFRRALREARQVDQVLKAGGTAKDLPPPTYSTNPDYVPCPHCQRRFAPDVAARHIPRCANTVNRPKPPPRRR”, the “soluble on expression in E. coli” value was “soluble”.
The entry for “MAHHHHHHMNFLGGSLRSGGGHRREKGFSAKNKVQQYHGDGSESIVLAGRPFRVLQKISDVPPPYMVTRQRSTKYGEGGSSYVYLVENTSHLPEFPRHLALKRSFFGVDQVMEAHKEVEIVSRIEDKNIVCVYHSEISRSEGRLGVSIAMEYCSNNLYHRIRSSAGTGIVTRLTEAEICHVMFAVTSAVGYLHAQQPPITHRDIRPENILINNKHAGPTAYKLTNFGNATTEAYQCETREEANMAIADIQMHTNPAFRAPEMADPWSKKRICEKTDMWSMGVLLYYMMYMSLPFDPSTTIVKDWALTFPSEATASYTPSLRVITEHLLDPDPCSRWDVFALINYMRFDEDCSRHLGTFCFTKTEWPEGWEEHDVKVLGRTPPPKAPPVSYNEPGHEQLDSRGLRGQERVHGHTNGHQPPDDRGNGRDSAVVDGAAVQEAMIVLGGDPADDDPAVAKYRHQIIMVQQEAWRRAKAAAGLRDSPPTEPQESSAAPAPTRANNEAQKDVFDDLFASASPTVFPTSQASPAMGPSAPPATHQPPEKDVFSASDLFSTSAPQLDPSYPVMNTYGQAPQQMAMGGWGSGAPVMGSGGYPMQQPQNQQQAPWGYGVSNANNYAPPLPPQQQQQQQLQPFTNFLPPLSGQQPGQQQSQQQETSQPRTARATAKRDPFADLFN” is “not soluble”; for “MGSDKIHHHHHHMLYAYGARVWALPIFTHQVYLDKPTKPGDKTLSLATTGFDFYVGGRAVLMNGNKREMVDITGIEPDKLEIKRSLLNRFDTSTVVYPLRSAVLTDMPQLTRLSDEVATAQIRLQIHEHNGYAADIRHLPTYRGHPVLEPTSEWSEDITAQYLRLIKQLDNGTALPHYLDTAKNAFQLTNHRFLLDSIEAQHKLRQLFYYLRGRQKAIWVASSTSDLTLANDIVGKNLDIELVYYTTCLLKQAGRQDIRIECTDGSVHYRRILAATVSNNQTERLALDGEALNLKREQVAKISFLTLSRLESDTIDWVHHTDTVASVTVSFRGLRDELEV” it is “not soluble”; for “MGSDKIHHHHHHMKTTFNLSRFYKACNPSYTLNISNVLDRQYYIDFADVRGCKIVEELQRTIVRISPDEPTCQLFTGHIGCGKSTELQRLKTELELAGFHVVYFESSQDLDMADIDISDILLSVARQVSASLEGINIKLKGGYFTNLFKEVGDFLQSPIELSGQAELSLGIAKITAKTKDSTQMRNQLRQYLEPRTNSILQAINEEILERAVEQLKLRGQKGLVVIVDNLDRVDMRPLASGRSQPEYLFIDRGEQLRRLKCHLVYTIPLTLIFSNEYETLKNRLGGGIAPKVLPMVLVRQRDGSDYEPGMSLVRQLVLARAFPEVSLNERLLLITELFDHSQTLDRICRVSGGHIRNLLGLLYSCLQRQDPPFSRECLEAVIKDYRDDLLLAIDESQWELLFEVVQQQRVKGESDYQSLLRSMYLFEYRDPLGRWFGISPALAETEKVLAWQQKK” it is “not soluble”.
Turning to “MADKSAYMSAGGYGSGYMGANASSSGYAREDYAQGGAGGSGNQNQGGSGGNTNPGGQVFKARTDQSCYLGP”, the “soluble on expression in E. coli” value is on record as “not soluble”.
As for “MNKKELIDRVAKKAGAKKKDVKLILDTILETITEALAKGEKVQIVGFGSFEVRKAAARKGVNPQTRKPITIPERKVPKFKPGKALKEKVK”, the “soluble on expression in E. coli” value is listed as “soluble”.
Take “MFSAGHKIKGTVVLMPKNELEVNPDGSAVDNLNAFLGRSVSLQLISATKADAHGKGKVGKDTFLEGINTSLPTLGAGESAFNIHFEWDGSMGIPGAFYIKNYMQVEFFLKSLTLEAISNQGTIRFVCNSWVYNTKLYKSVRIFFANHTYVPSETPAPLVSYREEELKSLRGNGTGERKEYDRIYDYDVYNDLGNPDKSEKLARPVLGGSSTFPYPRRGRTGRGPTVTDPNTEKQGEVFYVPRDENLGHLKSKDALEIGTKSLSQIVQPAFESAFDLKSTPIEFHSFQDVHDLYEGGIKLPRDVISTIIPLPVIKELYRTDGQHILKFPQPHVVQVSQSAWMTDEEFAREMIAGVNPCVIRGLEEFPPKSNLDPAIYGDQSSKITADSLDLDGYTMDEALGSRRLFMLDYHDIFMPYVRQINQLNSAKTYATRTILFLREDGTLKPVAIELSLPHSAGDLSAAVSQVVLPAKEGVESTIWLLAKAYVIVNDSCYHQLMSHWLNTHAAMEPFVIATHRHLSVLHPIYKLLTPHYRNNMNINALARQSLINANGIIETTFLPSKYSVEMSSAVYKNWVFTDQALPADLIKRGVAIKDPSTPHGVRLLIEDYPYAADGLEIWAAIKTWVQEYVPLYYARDDDVKNDSELQHWWKEAVEKGHGDLKDKPWWPKLQTLEDLVEVCLIIIWIASALHAAVNFGEYPYGGLIMNRPTASRRLLPEKGTPEYEEMINNHEKAYLRTITSKLPTLISLSVIEILSTHASDEVYLGQRDNPHWTSDSKALQAFQKFGNKLKEIEEKLVRRNNDPSLQGNRLGPVQLPYTLLYPSSEEGLTFRGIPNSISI”: the “soluble on expression in E. coli” value was “soluble”.
In the case of “MPAIFTHEGKVEGVPGNYPLTAENLFRIGLALCTLWILDKEIEEPTLSIPETNFVTLALSVGFMNAGGSVNVGKGGDIKLFLQKGEIYVLEFQPLSETDIKKLESILFGRAPIPKKTGEDIGSFKC”, the “soluble on expression in E. coli” value is “soluble”.
In the case of “MSLQKQRFCLDTTAITDSDVRKSLGVSNISESAEKIMDIIAQARVQLDISCHIPYDTVYKELVGFLTREGCAPETLIKVDTWLVKKTPNRYEIKIPAEIFYEYIKDLRERINKGMRISENAMYETALEAYILSKPDEKDREDVLNEVLSKTVNSFRVKYRNALRGGTLDSAPDLDVLLLAKELDAAVVANDEGIEKWAQRLGLRFVNARDFPFILQEYLDLWDKKEGHHHHHH”, the “soluble on expression in E. coli” value is “soluble”.
Turning to “MSHSQRGLNWFNALSADASEVTGLPASLKVADGLLGEQPVRFVAVIADTNNRFPRARQGEVGLLEGWGLAKAVDDAIEQDRERAEKRALIAIVDVPSQAYGRREEALGIHQALAGAVDSYARARLAGHPVIGLLVGKAMSGAFLAHGYQANRLIALRDPGVMVHAMGKASAARVTQRSVDDLEKLAASIAPMAYDIDSYASLGLLWETLSVSQIEQPAVDDLTQVRQVLSSAIKDVQASGVDLSSRLGASNRKASAHVRQLLRAQW”, the “soluble on expression in E. coli” value is reported as “not soluble”.
For “SKGFIDQYPNYSVGLGNLRSLKGDTCNLANDVLVETNTNESFLTPLTGTLGDSLTNDDVRGFDPNRISPWAFTPENRPEALGAANSTGDGSDTAAADSDASNTAAGADSDGSAAKADAASDNQEEAAKKKETHRADQGVNGSHSRLPFNLDYRTVPVLGSWTDGKQEIAEATSSWFKLPKANDNTPLVVVSAAGSIKHKDVNGIVENGQKIVLEYGRSNTGGSLGKAEKLGELDLLDSGIDSTWRNLRIPLSDIPDDADVIRIHAKDTSLDPDEWIAFTPPRVPTMDTLANQFPASTPGLLDWAVPLQFPCQRTFNHYAGVAEIPEYRISADAKGKQSGMNFQDFAGGGVTGIAETINSSYELPSYSKNDWVRDWGSIKMYKLRTNSKGEAPDVATVDTETITRSGLWYPGRMNIDTKVTKN”, the “soluble on expression in E. coli” value is given as “not soluble”.
The value for “MGSDKIHHHHHHMPLNMNRDVFITAAVTGSGGTQDKSPHVPRSPKEIAASAIEAARAGAAVVHCHVRDPETGAPSRRLELYRELTDRIRDSEVDVVLNLTAGMGGDIVFGSTEAPLPVNEAATDMIGATERMAHIAECLPEICTLDCGTMNFAEADYVMTNTPGMLRAMGQMMTDLGVKPEIEAFDTGHLWFAKQLVKEGILEPNALVQLCMGVPWGAPNDLNTFMAMVNNVPSDWTWSAFSLGRDQMPFAAASVLAGGNVRVGLEDNLFLDKGVLATNAQLVERAVSVIEGMGAKIVGPDAVREKLGLTKRAPVAA” was “not soluble”; that for “MKYKKLLFDLIDYLDAFESLHDGGSHEPEIKDFADFLSWRCGKKKKQEEEVVSVTRERAAGAKNIARGVSLLHRYSRFYIKKALTESPLQTEDEYTYLVSLMNGESMTKTELNNLNAMEKTSGAEVMRRLLKANLIEQRPDEEDRRSMRVSITPEGRKVLVNLFPNLRLCAETLVSALSDEQLTAFDHLLWLLCECHNEMFTGKHDAELTDLHAETCGLKQSAGGALSKRLYRR” was “not soluble”.
On to “VNQQLNSATKLFSVKLGATRVIYHAGTAGATLSVSNPQNYPILVQSSVKAADKSSPAPFLVMPPLFRLEANQQSQLRIVRTGGDMPTDRETLQWVCIKAVPPENEPSDTQAKGATLDLNLSINACDKLIFRPDAVKGTPEDVAGNLRWVETGNKLKVENPTPFYMNLASVTVGGKPITGLEYVPPFADKTLNMPGSAHGDIEWRVITDFGGESHPFHYVLK”, for which the “soluble on expression in E. coli” value is reported as “soluble”.
For “MAFGVSHPVALDLEATSTDPSEAEVLEVAAVDGEGRVFHRYLATQRPLPPDHEVFQLTGIPYEEYEAKKVAPKEALEELLAFLGGRPLLGHNLLRYDLPLLQRHLEEAGLPRWQGEALDTLRLAHLLFPTPPGGLEGYRLGDLYAFLLGRPLEGAHRALNDAQATLAVFHRLLDRGRRALAQHPGLVRAWRELGLPEGHLFPEDEGLIKDLLAREADVEAFFVEKEGRPFPAPTDLGPDLLPKPRPAQRIKEFVQVAHGVAGQGLVGRERPLHEVLERGLRLAVGEAEEGAVEKEG”, the “soluble on expression in E. coli” value is given as “soluble”.
The entry for “MYSPQTFFLQEVKGQKPDGLGGLIDDWGLFKEVSGYIDLVTGTDETTKQNAFVEESTHILIIPEFIEGITDNMRVVDQTNRYYDITYSDNPVGIKHHNEIYLKFEGVLSGEE” is “not soluble”; for “MAHHHHHHMAAFKPYRFIIFDQQIKNNQFYKSIITQLNLSLLCKEIYLNESFSCYQYEKLFLKKLVYYSFNNLGNNLKAREIKCSGHSSVDTGEHKLQQLINNVNKNENKNININKNINKNINKNVNINNADHNKCSDNSSDYHNFYENECMNNLNLINDLGDRHKNHPLYNVMMKNKKKELTTQSDINKLVSFHIYDNKNEKTFKNILSLNDTYNIDHMNILCLNNYKPIFNMLENYSINNKRISIYYPFYIINDDKNNKPQSNLYTKVADYCYNIVSDILPLNYKNINLSDIIKAIIINTELCQNEGNERMEVLKFMDIMDIIGKN” it is “soluble”.
The value for “RSGKCVGDVIETVDSEEAMGDLKIVLAAIFARKFAGVNGEVTKEYLEGYKMLNIYITNACNLKCKHCFMLSGKKLENELTLEDWMKVLTSFKENGGEFVTFSGGEPLMFKNFPQIISHAHDLGLKSTVLSNGLLWSGKLIHDLALFIDEIQFSLDGVDEETNSMVRGSGHFEKVVDTIVKFANAGVKT” was “not soluble”.
